Tested on: testicular germ cell proliferation
Experiment: Screen of SSC / differentiating spermatogonia receptor ligands in the iterative culture process
Format: cell-based, human
Conditions: ligand at the concentration listed in Table 5; effective to date at improving germ cell proliferation
Description: A process for identification and selection of receptor ligands capable of improving testicular germ cell proliferation was developed. The process uses expression data obtained by mining scRNA-seq data obtained from testicular tissue (FIG. 27). The process systematically prioritizes candidates for spermatogonia ligands through a series of bioinformatics analyses and filtering. The process comprises identifying and selecting potential ligands based on their receptor expression in State 1 SSCs (active stem cells) and State 2/3 differentiating spermatogonia (differentiated germ cells with strong proliferation ability), or any combination thereof.
More specifically, the approach was based on the single-cell RNA sequencing transcriptome profile of the adult human testis atlas (Guo, J., Grow, E. J., Mlcochova, H., Maher, G. J., Lindskog, C., Nie, X., Guo, Y., Takei, Y., Yun, J., Cai, L., et al. (2018). The adult human testis transcriptional cell atlas. Cell Research 28, 1141. 10.1038/s41422-018-0099-2; the disclosure of all of which is incorporated herein in its entirety), which provides a comprehensive characterization of cell types in the human adult testis. Pseudo-bulk RNA-seq analysis was used, which involves aggregating individual cells into groups to enhance the receptor gene expression signal on SSCs and differentiating spermatogonia. Each individual cell is assigned to its corresponding cell type cluster based and summing the expression values of all cells within each cluster to create pseudo-bulk samples.
The CellTalkDB database was used to identify receptors expressed in SSCs/differentiating spermatogonia. Specifically, the receptors whose expression in SSCs/differentiating spermatogonia ranks within the top 150 were selected, as expression levels below this point are generally low in these cell populations. […] This filtering step helps to focus on receptors that are more specific to the target cell populations. Using the CellTalkDB database, the corresponding ligands for the selected receptors were then identified. The ligand candidates were prioritized based on their expression levels in the testes, and their known functionality.
The identified ligands were then used in the iterative process of the instant disclosure for identifying culture conditions that support testicular germ cell proliferation in vitro to refine the culture conditions.

Molecule	Effective
rh CXCL12: chemokine; ligand of CXCR4	No
rh beta-NGF: ligand of KIDINS220	Yes
rh LIF: leukemia inhibitory factor; ligand of IL6ST/LIFR	Yes
C[C@]12CC[C@H]3[C@@H](CCC4=CC(=O)CC[C@@]43C)[C@@H]1CC[C@@H]2O [Testosterone, reference compound]	Yes
FGF2: basic fibroblast growth factor	Yes
rh Secretin: ligand of VIPR2	No
BMP8b: ligand of BMPR1B/BMPR1A/BMPR2 (protein, UniProt P34820 264-402, looked up) Bone morphogenetic protein 8B: AVRPLRRRQPKKSNELPQANRLPGIFDDVHGSHGRQVCRRHELYVSFQDLGWLDWVIAPQGYSAYYCEGECSFPLDSCMNATNHAILQSLVHLMMPDAVPKACCAPTKLSATSVLYYDSSNNVILRKHRNMVVKACGCH	No
rh MIF: ligand of CXCR4/CD74 (protein, UniProt P14174 2-115, looked up) Macrophage migration …: PMFIVNTNVPRASVPDGFLSELTQQLAQATGKPPQYIAVHVVPDQLMAFGGSSEPCALCSLHSIGKIGGAQNRSYSKLLCGLLAERLRISPDRVYINYYDMNAANVGWNNSTFA	Yes
WNT-1: ligand of RYK/FZD3/FZD7/FZD1/ROR2/LRP6 (protein, UniProt P04628 28-370, looked up) Proto-oncogene Wnt-1: ANSSGRWWGIVNVASSTNLLTDSKSLQLVLEPSLQLLSRKQRRLIRQNPGILHSVSGGLQSAVRECKWQFRNRRWNCPTAPGPHLFGKIVNRGCRETAFIFAITSAGVTHSVARSCSEGSIESCTCDYRRRGPGGPDWHWGGCSDNIDFGRLFGREFVDSGEKGRDLRFLMNLHNNEAGRTTVFSEMRQECKCHGMSGSCTVRTCWMRLPTLRAVGDVLRDRFDGASRVLYGNRGSNRASRAELLRLEPEDPAHKPPSPHDLVYFEKSPNFCTYSGRLGTAGTAGRACNSSSPALDGCELLCCGRGHRTRTQRVTERCNCTFHWCCHVSCRNCTHTRVLHECL	No
rh Midkine Protein: ligand of GPC2 (protein, UniProt P21741 21-143, looked up) Midkine: VAKKKDKVKKGGPGSECAEWAWGPCTPSSKDCGVGFREGTCGAQTQRIRCRVPCNWKKEFGADCKYKFENWGACDGGTGTKVRQGTLKKARYNAQCQETIRVTKPCTPKTKAKAKAKKGKGKD	Yes
DLK2: ligand of NOTCH1 (protein, UniProt Q6UY11 27-383, looked up) Protein delta homolog 2: DDCSSHCDLAHGCCAPDGSCRCDPGWEGLHCERCVRMPGCQHGTCHQPWQCICHSGWAGKFCDKDEHICTTQSPCQNGGQCMYDGGGEYHCVCLPGFHGRDCERKAGPCEQAGSPCRNGGQCQDDQGFALNFTCRCLVGFVGARCEVNVDDCLMRPCANGATCLDGINRFSCLCPEGFAGRFCTINLDDCASRPCQRGARCRDRVHDFDCLCPSGYGGKTCELVLPVPDPPTTVDTPLGPTSAVVVPATGPAPHSAGAGLLRISVKEVVRRQEAGLGEPSLVALVVFGALTAALVLATVLLTLRAWRRGVCPPGPCCYPAPHYAPACQDQECQVSMLPAGLPLPRDLPPEPGKTTAL	No
GDF6/BMP13: ligand of BMPR1B/BMPR1A/BMPR2 (protein, UniProt Q6KF10 336-455, looked up) Growth/differentiation factor …: TAFASRHGKRHGKKSRLRCSKKPLHVNFKELGWDDWIIAPLEYEAYHCEGVCDFPLRSHLEPTNHAIIQTLMNSMDPGSTPPSCCVPTKLTPISILYIDAGNNVVYKQYEDMVVESCGCR	No
GDF11/BMP11: ligand of BMPR1B/BMPR1A/BMPR2/ACVR2B/ACVR1B/ACVR2A (protein, UniProt O95390 299-407, looked up) Growth/differentiation factor …: NLGLDCDEHSSESRCCRYPLTVDFEAFGWDWIIAPKRYKANYCSGQCEYMFMQKYPHTHLVQQANPRGSAGPCCTPTKMSPINMLYFNDKQQIIYGKIPGMVVDRCGCS	No
rh ADAM10: ligand of CADM1/TSPAN14/TSPAN15/TSPAN12 (protein, UniProt O14672 214-748, looked up) Disintegrin and …: TTSAEKNTCQLYIQTDHLFFKYYGTREAVIAQISSHVKAIDTIYQTTDFSGIRNISFMVKRIRINTTADEKDPTNPFRFPNIGVEKFLELNSEQNHDDYCLAYVFTDRDFDDGVLGLAWVGAPSGSSGGICEKSKLYSDGKKKSLNTGIITVQNYGSHVPPKVSHITFAHEVGHNFGSPHDSGTECTPGESKNLGQKENGNYIMYARATSGDKLNNNKFSLCSIRNISQVLEKKRNNCFVESGQPICGNGMVEQGEECDCGYSDQCKDECCFDANQPEGRKCKLKPGKQCSPSQGPCCTAQCAFKSKSEKCRDDSDCAREGICNGFTALCPASDPKPNFTDCNRHTQVCINGQCAGSICEKYGLEECTCASSDGKDDKELCHVCCMKKMDPSTCASTGSVQWSRHFSGRTITLQPGSPCNDFRGYCDVFMRCRLVDADGPLARLKKAIFSPELYENIAEWIVAHWWAVLLMGIALIMLMAGFIKICSVHTPSSNPKLPPPKPLPGTLKRRRPPQPIQQPQRQRPRESYQMGHMRR	No
WNT-3A: ligand of RYK/FZD3/FZD7/FZD1/LRP6 (protein, UniProt P56704 19-352, looked up) Protein Wnt-3a: SYPIWWSLAVGPQYSSLGSQPILCASIPGLVPKQLRFCRNYVEIMPSVAEGIKIGIQECQHQFRGRRWNCTTVHDSLAIFGPVLDKATRESAFVHAIASAGVAFAVTRSCAEGTAAICGCSSRHQGSPGKGWKWGGCSEDIEFGGMVSREFADARENRPDARSAMNRHNNEAGRQAIASHMHLKCKCHGLSGSCEVKTCWWSQPDFRAIGDFLKDKYDSASEMVVEKHRESRGWVETLRPRYTYFKVPTERDLVYYEASPNFCEPNPETGSFGTRDRTCNVSSHGIDGCDLLCCGRGHNARAERRREKCRCVFHWCCYVSCQECTRVYDVHTCK	Yes
CNTN2: ligand of CNTNAP2 (protein, UniProt Q02246 31-1012, looked up) Contactin-2: SQTTFGPVFEDQPLSVLFPEESTEEQVLLACRARASPPATYRWKMNGTEMKLEPGSRHQLVGGNLVIMNPTKAQDAGVYQCLASNPVGTVVSREAILRFGFLQEFSKEERDPVKAHEGWGVMLPCNPPAHYPGLSYRWLLNEFPNFIPTDGRHFVSQTTGNLYIARTNASDLGNYSCLATSHMDFSTKSVFSKFAQLNLAAEDTRLFAPSIKARFPAETYALVGQQVTLECFAFGNPVPRIKWRKVDGSLSPQWTTAEPTLQIPSVSFEDEGTYECEAENSKGRDTVQGRIIVQAQPEWLKVISDTEADIGSNLRWGCAAAGKPRPTVRWLRNGEPLASQNRVEVLAGDLRFSKLSLEDSGMYQCVAENKHGTIYASAELAVQALAPDFRLNPVRRLIPAARGGEILIPCQPRAAPKAVVLWSKGTEILVNSSRVTVTPDGTLIIRNISRSDEGKYTCFAENFMGKANSTGILSVRDATKITLAPSSADINLGDNLTLQCHASHDPTMDLTFTWTLDDFPIDFDKPGGHYRRTNVKETIGDLTILNAQLRHGGKYTCMAQTVVDSASKEATVLVRGPPGPPGGVVVRDIGDTTIQLSWSRGFDNHSPIAKYTLQARTPPAGKWKQVRTNPANIEGNAETAQVLGLTPWMDYEFRVIASNILGTGEPSGPSSKIRTREAAPSVAPSGLSGGGGAPGELIVNWTPMSREYQNGDGFGYLLSFRRQGSTHWQTARVPGADAQYFVYSNESVRPYTPFEVKIRSYNRRGDGPESLTALVYSAEEEPRVAPTKVWAKGVSSSEMNVTWEPVQQDMNGILLGYEIRYWKAGDKEAAADRVRTAGLDTSARVSGLHPNTKYHVTVRAYNRAGTGPASPSANATTMKPPPRRPPGNISWTFSSSSLSIKWDPVVPFRNESAVTGYKMLYQNDLHLTPTLHLTGKNWIEIPVPEDIGHALVQIRTTGPGGDGIPAEVHIVRNGGTSMMVEN	No
rh HB-EGF: ligand of CD9 (protein, UniProt Q99075 63-148, looked up) Heparin-binding EGF-like …: DLQEADLDLLRVTLSSKPQALATPNKEEHGKRKKKGKGLGKKRDPCLRKYKDFCIHGECKYVKELRAPSCICHPGYHGERCHGLSL	Yes
GDNF: recombinant human glial cell line-derived neurotrophic factor (protein, UniProt P39905 78-211, looked up) Glial cell line-derived …: SPDKQMAVLPRRERNRQAAAANPENSRGKGRRGQRGKNRGCVLTAIHLNVTDLGLGYETKEELIFRYCSGSCDAAETTYDKILKNLSRNRRLVSDKVGQACCRPIAFDDDLSFLDDNLVYHILRKHSAKRCGCI	Yes
GDF9: ligand of ACVR2A/BMPR1B/BMPR1A/BMPR2/TGFBR1 (protein, UniProt O60383 320-454, looked up) Growth/differentiation factor …: GQETVSSELKKPLGPASFNLSEYFRQFLLPQNECELHDFRLSFSQLKWDNWIVAPHRYNPRYCKGDCPRAVGHRYGSPVHTMVQNIIYEKLDSSVPRPSCVPAKYSPLSVLTIEPDGSIAYKEYEDMIATKCTCR	No
Artemin (ARTN): ligand of GFRA1/GFRA2/RET/GFRA3 (protein, UniProt Q5T4W7 108-220, looked up) Artemin: AGGPGSRARAAGARGCRLRSQLVPVRALGLGHRSDELVRFRFCSGSCRRARSPHDLSLASLLGAGALRPPPGSRPVSQPCCRPTRYEAVSFMDVNSTWRTVDRLSATACGCLG	No
Neurturin (NRTN): ligand of GFRA1/GFRA2/RET/GFRA3 (protein, UniProt Q99748 96-197, looked up) Neurturin: ARLGARPCGLRELEVRVSELGLGYASDETVLFRYCAGACEAAARVYDLGLRRLRQRRRLRRERVRAQPCCRPTAYEDEVSFLDAHSRYHTVHELSARECACV	Yes
